Results: paper PMC3659287

Target: wild-type pneumolysin (PLY) (Streptococcus pneumoniae) (UniProt Q04IN8)
Test: ELISA

Sequence of UniProt Q04IN8 (Q04IN8 whole entry): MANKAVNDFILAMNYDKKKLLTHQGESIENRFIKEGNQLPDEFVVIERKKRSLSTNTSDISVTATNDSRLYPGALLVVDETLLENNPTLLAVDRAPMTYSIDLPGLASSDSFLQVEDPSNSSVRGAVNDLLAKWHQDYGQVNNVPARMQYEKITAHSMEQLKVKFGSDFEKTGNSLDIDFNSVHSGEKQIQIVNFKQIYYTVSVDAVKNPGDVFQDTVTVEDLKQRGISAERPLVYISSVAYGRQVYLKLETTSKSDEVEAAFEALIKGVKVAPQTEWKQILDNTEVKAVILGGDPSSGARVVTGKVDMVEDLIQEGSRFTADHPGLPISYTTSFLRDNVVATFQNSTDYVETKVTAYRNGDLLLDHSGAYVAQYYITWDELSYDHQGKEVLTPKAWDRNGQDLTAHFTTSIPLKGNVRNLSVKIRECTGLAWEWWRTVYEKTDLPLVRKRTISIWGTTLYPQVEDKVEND

G-actin (non-muscle actin isolated from human platelets) (from UniProt P60709 1-375) (natural protein)
Kd: 170 to 190 nM
